No end group written: not given here.

In one series the target is RILPL2 (Mus musculus) (UniProt Q99LE1). The conditions noted are these: cited from earlier work.
Series [1] deals with the molecule itself. In words: SEC-MALS; static light scattering coupled to gel filtration, Superdex 200 (10/300); full-length RILPL2 with uncleaved polyhistidine tag, 500 μL at 1 mg/mL. Background: In gel filtration, larger molecules generally elute earlier.
The target in series [2] is T1, His6-tagged RILPL2 (full length, 1-211) (Homo sapiens (Human), UniProt Q969X0).
T1 chain: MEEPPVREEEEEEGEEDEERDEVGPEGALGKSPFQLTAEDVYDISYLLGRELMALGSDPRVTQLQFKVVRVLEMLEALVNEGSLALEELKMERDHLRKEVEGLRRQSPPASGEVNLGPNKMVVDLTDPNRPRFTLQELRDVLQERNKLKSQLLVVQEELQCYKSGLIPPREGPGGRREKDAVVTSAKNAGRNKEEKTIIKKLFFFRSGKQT
The experiment in a line: Ni-agarose pull-down (SDS-PAGE, Coomassie).

The target of series [3] is T72 phosphorylated Rab8a(GTP), residues 1-181, Q67L (UniProt P61006). The experiment in a line: ITC; His6-RILPL2 129-165 (400-600 μM) injected into Rab8a or pRab8a 1-181 (40-60 μM); 10 mM Tris-HCl, 300 mM NaCl, 5 mM MgCl2, 20 mM imidazole, 1 mM DTT; triplicate. In general terms: In ITC the heat of successive injections is recorded.
Series [4] deals with the molecule itself. The experiment in a line: crystal structure; pRab8(Q67L):His6-RL2 complex, 1:1 molar ratio of protein:peptide, 12 mg/mL; 100 mM HEPES pH 7, 10% PEG4,000, 10% 2-propanol; 1.8 Å.

RILPL2 (Mus musculus), sequence (Q99LE1 whole entry): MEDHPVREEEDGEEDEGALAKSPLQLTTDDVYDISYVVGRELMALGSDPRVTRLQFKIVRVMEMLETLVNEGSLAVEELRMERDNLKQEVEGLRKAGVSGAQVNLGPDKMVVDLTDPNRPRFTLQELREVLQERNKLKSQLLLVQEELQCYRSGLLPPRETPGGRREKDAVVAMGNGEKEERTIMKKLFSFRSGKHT
T72 phosphorylated Rab8a(GTP), residues 1-181, Q67L, sequence (P61006 1-181 Q67L): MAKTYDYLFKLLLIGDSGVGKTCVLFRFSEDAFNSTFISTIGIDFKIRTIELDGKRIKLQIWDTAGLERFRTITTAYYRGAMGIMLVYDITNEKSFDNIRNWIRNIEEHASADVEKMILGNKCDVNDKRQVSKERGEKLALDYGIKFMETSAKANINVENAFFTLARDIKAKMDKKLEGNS

Usually Kd stands for the constant that tells how readily two partners part at equilibrium. In the case of Myosin Va (from UniProt Q99104), the Kd in the series with RILPL2 (Mus musculus) was 0.3 µM.

B1: His6-tagged RILPL2 (full length, 1-211) (natural protein, human, UniProt Q969X0 1-211, looked up)
chain: T1 chain
notes: RILPL2, human, full length (1-211), cDNA in pET15b; Dimer in solution by static light scattering coupled to gel filtration; also called full-length RILPL2; source: E. coli, purified (Ni-agarose, gel filtration), polyhistidine tag not removed
Usually stoichiometry N stands for a count of units in the complex or per binding partner. Take B1: the “stoichiometry N” value in series [1] is 2.

B2: globular tail domain (GTD) of myosin Va (1462-1853) (protein)
chain: VNIPRKEKDFQGMLEYKREDEQKLVKNLILELKPRGVAVNLIPGLPAYILFMCVRHADYLNDDQKVRSLLTSTINSIKKVLKKRGDDFETVSFWLSNTCRFLHCLKQYSGEEGFMKHNTSRQNEHCLTNFDLAEYRQVLSDLAIQIYQQLVRVLENILQPMIVSGMLEHETIQGVSGVKPTGLRKRTSSIADEGTYTLDSILRQLNSFHSVMCQHGMDPELIKQVVKQMFYIVGAITLNNLLLRKDMCSWSKGMQIRYNVSQLEEWLRDKNLMNSGAKETLEPLIQAAQLLQVKKKTDDDAEAICSMCNALTTAQIVKVLNLYTPVNEFEERVSVSFIRTIQMRLRDRKDSPQLLMDAKHIFPVTFPFNPSSLALETIQIPASLGLGFIARV
Consider B2, for which the binding result in series [2] was “binds”.

B3: His6-RILPL2 residues 129-165 (phospho-Rab binding domain, minimal RH2 motif) (peptide, UniProt Q969X0 129-165, looked up)
chain: His6-NRPRFTLQELRDVLQERNKLKSQLLVVQEELQCYKSG
notes: Parallel α-helical dimer in the crystal; also called His6-RL2; source: synthetic peptide (Genscript); not shown: His6, N-terminal, kept
For the molecule B3, the Kd in series [3] is 3.3 µM. The “stoichiometry N” value in series [4] amounted to 2.

Values taken from article PMC7139218, “Structural Basis for Rab8a Recruitment of RILPL2 via LRRK2 Phosphorylation of Switch 2” (Structure(London, England:1993), 2020).
